According to patent US9303249B2, “High concentration α-glucosidase compositions for the treatment of Pompe disease” (Amicus Therapeutics, Inc., priority 2012, dated 2016):

Assays:
[1] = tested on: GAA KO mice; test: Tissue GAA activity after repeat SQ with varying 1-DNJ (Example 16); assay type: in vivo, mouse; conditions: Lumizyme 20 mg/kg SQ alone, 4 doses, 3 days after last dose
Method: 14-week old male GAA KO mice in groups of 7 were used in the present study. Each group of mice was administered one of the following treatments:
(2) Lumizyme® alone (20 mg/kg) delivered subcutaneously (SQ);
(3) Co-formulated Lumizyme® (20 mg/kg) and 1-DNJ (3 mg/kg) SQ.
(4) Co-formulated Lumizyme® (20 mg/kg) and 1-DNJ (10 mg/kg) SQ.
(5) Co-formulated Lumizyme® (20 mg/kg) and 1-DNJ (30 mg/kg) SQ.
(§1) Each of the treatments was administered to their respective treatment group for a period of 2 weeks. The treatments were administered on Monday and Thursday of each week. SQ injections were administered between the shoulder blades of each mouse receiving treatment. A total of 4 doses were administered to each study animal.
(§2) Tissue samples were collected to determine rhGAA uptake 3 days following the last dose of the study (i.e., 3 days post dose 4). Tissue samples included heart, tongue, diaphragm, triceps, quads, gastrocnemius, ventral skin and dorsal skin from the SQ injection site. Tissue samples were also collected to determine glycogen concentration 14 days following the last dose of the study (i.e., 14 days post dose 4).
FIGS. 47-54 show tissue GAA activity 3 days following the final administration, and glycogen levels 14 days following the final administration. GAA activities in tissues were determined using a 4-MUG fluorogenic substrate assay. Glycogen levels were determined using a glycogen assay (see Example 9 for method). Lumizyme® alone administered subcutaneously led to uptake of enzyme in all investigated tissues following repeat administrations.

[2] = tested on: GAA KO mice; test: Tissue rhGAA activity after repeat SQ dosing between the shoulder blades (Example 13); assay type: in vivo, mouse; conditions: Lumizyme 20 mg/kg +/− 1-DNJ 30 mg/kg SQ, 4 doses (Mon and Thu), 3 days after last dose
Method: 12-week old male GAA KO mice in groups of 7 were used in the present study. Each group of mice was administered one of the following treatments:
(2) Lumizyme® alone (20 mg/kg) delivered subcutaneously (SQ); or
(3) Co-formulated Lumizyme® (20 mg/kg) and 1-DNJ (30 mg/kg) SQ.
as §1, with “treatments were” for “treatments was”, “doses was” for “doses were”, “animal. Diphenhydramine was administered intraperitoneally (IP) before the 3rd and 4th doses.” for “animal.”
as §2, with “heart, diaphragm,” for “heart,”, “brain, spleen, liver, biceps,” for “diaphragm,”, “quadriceps, soleus,” for “quads,”

[3] = Solubility of Lumizyme® in the presence of 1-DNJ-HCl and excipients (Example 12); assay type: physicochemical
Method: A vial of Lumizyme® containing 52.5 mg protein, 210 mg mannitol, 0.5 mg polysorbate 80, 9.9 mg Na2HPO4×7H2O, and 31.2 mg NaH2PO4×H2O was dissolved in a minimal volume of water (1 mL added) yielding 1.2 mL of protein solution. Five 240-μL aliquots (each containing 10.5 mg protein) were transferred to Amicon Ultra 0.5 mL 30 kDa cutoff centrifugal filter devices and centrifuged for 10 min at 14,000×g in an Eppendorf centrifuge to obtain about 50 μL of retentate.
The original excipients present in the composition, i.e., mannitol and polysorbate 80 were exchanged for new excipients to test protein solubility (keeping the same buffer conditions). The following excipient solutions were prepared for the exchange using the original phosphate buffer:
For exchanging excipients, 5.2 mg Na2HPO4 and 27.1 mg NaH2PO4 were dissolved in 10.3 mL water to prepare the washing/excipient exchange phosphate buffer of approximately 26 mM. A volume of 8 mL of the buffer for excipient exchange was supplemented with 160 mg/mL of the small molecule ligand (to prepare excipient 1, 3, 4 and 5 solutions), while 2 mL was supplemented with 32 mg/mL ligand for excipient 2 (100 mM Arginine). Each of the excipients were dissolved in 2 mL of this buffer at the concentrations listed above.
An excipient solution was added to each separate filter device to achieve a total volume of 0.5 mL. Each filter device was centrifuged for 15 min at 14,000×g in a bench top Eppendorf centrifuge to retain approximately 25 μL. The units were re-filled with the same excipient solution to 0.5 mL and centrifuged again (this process was repeated 2 times). This procedure efficiently replaced mannitol and polysorbate 80 with excipients described above, diluting the original constituents by about 1:1000. All filtrates for each excipient were collected and examined for any protein leaks through the filter.
Each centrifugal filter device was inverted in a clean tube, and the concentrated protein solution was collected from each filter device by centrifugation for 2 min at 1000×g. The volume of each sample was determined (66 μL, corresponding to a target protein concentration of 160 mg/mL), and it was confirmed that no visible precipitate was observable in each sample. Samples were transferred back to their respective filter devices and centrifuged for an additional 5 min Samples were then collected by inversion of the filters into clean tubes and centrifuging for 2 min at 1000×g to yield about 37 μL of retentate (corresponding to >280 mg/mL protein based on a total initial concentration of 10.5 mg protein).
The samples were vortexed and incubated for 1 hr at room temperature to equilibrate liquid and solid phases followed by centrifugation for 10 min at 14,000×g. Again, no visible precipitate was observed. Two-three 10 μL aliquots were taken from the supernatant of each sample (depending on available volume of the liquid phase), and diluted 1:1000 in two steps. Protein concentration was measured by UV absorbance at 280 nm, and the maximum protein solubility was calculated according to a highly reproducible calibration curve. The calibration curve was prepared by dissolving 6.8 mg of Myozyme® (alglucosidase alpha) lyophilized powder (containing 1.16 mg protein) in 1.16 mL of water followed by a serial dilution in deionized water. Absorbance was measured at 280 nm in a 1 cm light-pass quartz semi-micro cuvette using 0.5 mL aliquots.

In the case of “Lumizyme®: alglucosidase alfa, recombinant human acid α-glucosidase from Genzyme Corporation”, the “GAA Activity” value ([1]; Biceps) was 45.9 nmol/mg/h, the “GAA Activity” value ([1]; Diaphragm) was 10.6 nmol/mg/h and the “GAA Activity” value ([1]; Gastrocnemius) was 1 nmol/mg/h. The “GAA Activity” value ([1]; Heart) was 1.9 nmol/mg/h, the “GAA Activity” value ([1]; Quadriceps) was 1.3 nmol/mg/h and the “GAA Activity” value ([1]; Skin) was 43.9 nmol/mg/h. The “GAA Activity” value ([1]; Soleus) was 0.9 nmol/mg/h, the “GAA Activity” value ([1]; Tongue) was 2.3 nmol/mg/h and the “GAA Activity” value ([1]; Triceps) was 151.3 nmol/mg/h. It also gave a rhGAA activity uptake ([2]; Biceps) of 56.0 nmol/mg/h, a rhGAA activity uptake ([2]; Diaphragm) of 4.2 nmol/mg/h and a rhGAA activity uptake ([2]; Gastrocnemius) of 2.0 nmol/mg/h. For the same substance, the rhGAA activity uptake ([2]; Heart) was 1.9 nmol/mg/h, the rhGAA activity uptake ([2]; Quadriceps) was 2.1 nmol/mg/h and the rhGAA activity uptake ([2]; Skin) was 75 nmol/mg/h. The rhGAA activity uptake ([2]; Soleus) was 2.7 nmol/mg/h, the rhGAA activity uptake ([2]; Tongue) was 2.7 nmol/mg/h and the rhGAA activity uptake ([2]; Triceps) was 88.0 nmol/mg/h. For the same substance, the Protein solubility ([3]; Arginine 100 mM, 1-DNJ-HCl 32 mg/mL) was 201 mg/mL, the Protein solubility ([3]; Arginine + Glutamic acid 50 mM + 50 mM, 1-DNJ-HCl 160 mg/mL) was 242 mg/mL and the Protein solubility ([3]; Gamma-cyclodextrin 10% (w/v), 1-DNJ-HCl 160 mg/mL) was 114 mg/mL. It also gave a Protein solubility ([3]; PEG400 5% (w/v), 1-DNJ-HCl 160 mg/mL) of 158 mg/mL and a Protein solubility ([3]; Proline 250 mM, 1-DNJ-HCl 160 mg/mL) of 195 mg/mL.
